Here are results for one substance from article doi:10.1101/2021.08.16.456586.

Read-outs that look alike come from different tables or passages of the source.

In experiment [1] the target is Empty HBV Cp183 capsid (Hepatitis B Virus (strain not stated)) (UniProt P03147). The experiment is described as follows: charge detection mass spectrometry.
The target is the same in experiment [2]. The experiment can be described thus: negative stain TEM, 2D class averages.
Experiment [3] shares this target. The experiment is described as follows: charge detection mass spectrometry. This is another data set of the same source.
For experiment [4] the target is unchanged. The experiment is described as follows: charge detection mass spectrometry. The source holds these as a separate data set.

Sequence of UniProt P03147 (P03147 whole entry): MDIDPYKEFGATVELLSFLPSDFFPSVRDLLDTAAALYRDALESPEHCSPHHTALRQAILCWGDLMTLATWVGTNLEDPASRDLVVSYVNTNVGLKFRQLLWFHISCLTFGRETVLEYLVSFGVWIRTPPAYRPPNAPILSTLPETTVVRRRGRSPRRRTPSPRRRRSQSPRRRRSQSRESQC

Take “Importin β (from UniProt Q14974 1-876) (natural protein)”: the stoichiometry N (Impβ per capsid) in experiment [1] stood at 64; in experiment [3] it was 38; in experiment [4], 38. In addition, the percent of empty capsids with externally bound Impβ in experiment [2] was found to be 90%. This substance had a percent of particles with visible, externally bound Impβ in experiment [2] of 48%.
